Measured values as given in patent US20250206823A1 (published 2025).

Molecular target: CD33 naturally expressed on HL60 cells (human, UniProt P20138 18-364)
Assay: FACS

Chain of CD33 naturally expressed on HL60 cells (P20138 18-364): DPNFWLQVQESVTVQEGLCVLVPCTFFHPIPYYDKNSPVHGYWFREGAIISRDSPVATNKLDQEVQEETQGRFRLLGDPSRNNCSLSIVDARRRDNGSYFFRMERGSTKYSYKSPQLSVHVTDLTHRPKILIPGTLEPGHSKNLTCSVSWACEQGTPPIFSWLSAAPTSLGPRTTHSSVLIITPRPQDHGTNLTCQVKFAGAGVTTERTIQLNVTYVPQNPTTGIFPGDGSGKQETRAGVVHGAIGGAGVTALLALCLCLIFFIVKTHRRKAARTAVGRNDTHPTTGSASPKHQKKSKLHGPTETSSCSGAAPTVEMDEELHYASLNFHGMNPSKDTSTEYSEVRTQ

B1: CD33/CD16A bispecific antibody QP411543674368 (FC with L234A/L235A mutation for eliminating function) (bispecific antibody)
scFv: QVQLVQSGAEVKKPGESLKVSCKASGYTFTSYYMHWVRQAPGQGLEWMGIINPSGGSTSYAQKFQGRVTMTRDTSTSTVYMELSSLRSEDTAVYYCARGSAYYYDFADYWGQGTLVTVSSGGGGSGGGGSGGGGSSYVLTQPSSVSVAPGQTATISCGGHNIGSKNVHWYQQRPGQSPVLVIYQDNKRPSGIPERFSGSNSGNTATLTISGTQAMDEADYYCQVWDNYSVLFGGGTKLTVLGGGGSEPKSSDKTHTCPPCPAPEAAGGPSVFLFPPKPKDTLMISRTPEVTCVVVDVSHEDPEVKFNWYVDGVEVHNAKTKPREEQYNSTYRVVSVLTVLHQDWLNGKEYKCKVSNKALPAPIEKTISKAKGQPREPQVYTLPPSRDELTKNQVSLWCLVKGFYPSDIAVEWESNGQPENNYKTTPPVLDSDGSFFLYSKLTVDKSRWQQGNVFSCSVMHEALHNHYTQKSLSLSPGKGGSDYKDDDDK
heavy: QVQLVQSGAEVKKPGESVKVSCKASGYTFTNYGMNWVKQAPGQGLEWMGWINTYTGEPTYADKFQGRVTMTTDTSTSTAYMEIRNLGGDDTAVYYCARWSWSDGYYVYFDYWGQGTSVTVSSASTKGPSVFPLAPSSKSTSGGTAALGCLVKDYFPEPVTVSWNSGALTSGVHTFPAVLQSSGLYSLSSVVTVPSSSLGTQTYICNVNHKPSNTKVDKKVEPKSCDKTHTCPPCPAPEAAGGPSVFLFPPKPKDTLMISRTPEVTCVVVDVSHEDPEVKFNWYVDGVEVHNAKTKPREEQYNSTYRVVSVLTVLHQDWLNGKEYKCKVSNKALPAPIEKTISKAKGQPREPQVYTLPPSREEMTKNQVSLSCAVKGFYPSDIAVEWESNGQPENNYKTTPPVLDSDGSFFLVSKLTVDKSRWQQGNVFSCSVMHEALHNRYTQKSLSLSPGKGGSHHHHHH
light: DIVMTQSPDSLTVSLGERTTINCKSSQSVLDSSTNKNSLAWYQQKPGQPPKLLLSWASTRESGIPDRFSGSGSGTDFTLTIDSPQPEDSATYYCQQSAHFPITFGQGTRLEIKRTVAAPSVFIFPPSDEQLKSGTASVVCLLNNFYPREAKVQWKVDNALQSGNSQESVTEQDSKDSTYSLSSTLTLSKADYEKHKVYACEVTHQGLSSPVTKSFNRGEC
B1 was tested. Which EC50 did it give?
The EC50 was 11.4 nM.
